Paper doi:10.1101/2025.06.20.660723

Biological target: Lhcb2 of Posidonia oceanica, threonine-phosphorylated (Posidonia oceanica (endogenous in leaves))

- stoichiometry N (Lhcb1 per Lhcb2): 2
Substance: Lhcb1 of Posidonia oceanica (natural protein)
